Experimental data from the Human Domainome abundance scans (Beltran et al. 2025).

B1: Poly(rC)-binding protein 1, residues 278 to 350; numbered along this chain, Q15365 (parent)
chain: TQTTHELTIPNNLIGCIIGRQGANINEIRQMSGAQIKIANPVEGSSGRQVTITGSAASISLAQYLINARLSSE
B2: Histidine--tRNA ligase, cytoplasmic, residues 8 to 45; numbered along this chain, P12081 (parent)
chain: EELVKLQGERVRGLKQQKASAELIEEEVAKLLKLKAQL

Variants of: B1
Assay: abundance fitness (aPCA) (normalised: wild type 0, dead -1); higher = more abundant; growth selection in yeast, the domain comes from the species named
Conditions: Homo sapiens

Abundance fitness of substitutions, site by site:
T1: A -0.086

Variants of: B2
Assay: as above
Conditions: Homo sapiens

Abundance fitness, by site and new letter:
A21: K 0.055; D 0.13; Q 0.039; S 0.072; R -0.086; C -0.202; W -0.49; V -0.161; M 0.116
R12: A 0.218; D 0.122; M -0.216; I -0.077; F -0.172; N -0.022; E 0.231; G 0.096
V4: R -0.544; K -0.568; E -0.139; Y 0.077; G -0.227; I -0.013; L -0.201; P -0.658; N -0.139; W -0.468; Q -0.563; F -0.109; D -0.01
L31: G -0.044; I -0.426; K 0.002; S 0.026; P 0.123; Y -0.199; D 0.222; C -0.187; H -0.144; A -0.084; M -0.338
Q37: M -0.02; L -0.164; P 0.083; R -0.143; V -0.173; I -0.29; Y -0.532; D 0.119; H -0.224
V11: T -0.127; I -0.011; W -0.374; C -1.51; P -0.01; S -0.238; L -0.189; G -0.121
L3: V -0.366; G -0.45; D -0.454; R -0.258; K -0.088; P -0.729; N -0.287; I -0.086; H -0.362; S -0.066; M 0.156; E 0.203; A -0.162
K15: H -0.127; G -0.274; F -0.164; R -0.1; E 0.187; I 0.017; Y -0.41; T 0.001; N -0.135; Q 0.061
K30: R -0.204; M -0.234; T -0.246; V -0.136; P -0.219; W -0.639; A -0.04; N -0.119; F -0.722; C -0.411; I -0.232
S20: R -0.019; G -0.022; N 0.026; W -1.1
E2: M -0.636; A -0.665; C -1.08; V -0.762; F -0.274; K -0.703
Q16: P -0.223; T -0.08; I -0.227; W -0.483; K -0.004; D 0.083; C -0.288; M 0.028; H -0.134
L38: E 0.204; S 0.009; K 0.14; M 0.193; Q 0.166; H -0.012; T 0.034; R -0.067; W -0.154; N -0.05
K35: A 0.627; Q 0.414; T 0.392; M 0.277; D 0.227; W -0.936; E 0.193; R -0.005; I -0.335; V 0.271; P 0.394
E26: D -0.009; K 0.184; M 0.168; F -0.038; C -0.024; P -0.024; S 0.184; H 0.284; R 0.1; A 0.263; L -0.046
E9: Q -0.379; F -0.684; P -0.631; Y -0.816; C -0.5; H -0.699
L14: I -0.263; F -0.4; T -0.334; S -0.101; H -0.397; Q -0.173; N -0.479; P -0.248
L32: G 0.121; K 0.105; C 0.116; D 0.174; R 0.096; A 0.227; Q 0.201; H 0.08
A19: C -0.034; D -0.285; M -0.039; S -0.21; Y -0.612; F -0.384; N -0.406; E -0.17; K -0.264
L6: I -0.428; G -0.171; M 0.1; C -0.436; Q 0.213; E 0.128; H 0.051; V 0.054; S -0.136
K5: C -0.531; Q -0.019; L -0.394; H -0.223; Y -0.27; M -0.143; F -0.443; R -0.269; I -0.436; E -0.026; G -0.407
Q17: W -0.5; P -0.369; L -0.232; D -0.11; H -0.446; I -0.388; F -0.396; V -0.258
R10: N -0.198; S -0.213; F -0.288; V 0.039; G -0.229; W -0.887; K 0.245; D -0.084; I -0.035; H -0.131; Q -0.097; C -0.379
Q7: H -0.507; V -0.379; P -0.595; F -0.73; D -0.492; L -0.515; W -1.15; Y -0.706; E -1.63
L34: D 0.05; G -0.128; T -0.066; Y -0.093; H -0.06; F -0.148; W -0.237; Q 0.061; I -0.176; M 0.121; K -0.1; A -0.054; C -0.197
V28: E 0.316; A 0.177; C -0.076; K 0.107; P -0.119; I -0.303
I24: V -0.035; E -0.151; N -0.137; Q 0.163; R -0.184; S -0.171; L 0.03; D 0.055
A29: L -0.462; T -0.26; V -0.277; M -0.069; D 0.106; G -0.092; P -0.37
E25: T -0.009; K -0.001; M -0.184; L -0.484; W -0.586; S 0.032; N 0.055
L23: S -0.266; I 0.188; R -0.001; Q 0.262; P -0.004; V 0.2; A -0.037; M 0.243; N -0.04; T 0.071
E22: R -0.023; V 0.052; K 0.075; P -0.007; M -0.046; C -0.107; D 0.04; L -0.149; Q 0.13; A 0.069; I -0.156; W -0.577
G8: A 0.101; N -0.075; S 0.074; I 0.086; R -0.04; C -1.04; T 0.217; D 0.054; P -0.25
K18: G 0.172; C -0.112; Y -0.342; Q 0.066; T -0.083
K33: I -0.407; F -0.338; A -0.081; R -0.109; Y -0.313; L -0.34; E 0.226; H -0.039; T -0.093
E27: W -1.11; S -0.291; V -1.1; T -0.798; H -0.436
G13: R 0.005; F 0.079; V 0.198; L 0.197; I 0.188; S 0.154; K 0.168; C 0.271; D 0.079; P -0.237
E1: A -0.62; F -0.386; D -0.377; T -0.692; M -0.139; Y -1.05; I -0.132; W -0.537; L -0.687
